The numbers were not newly measured in paper PMC3589424, which cites them from elsewhere.

This data set addresses CD47 (Homo sapiens) (UniProt Q08722).
UniProt Q08722, sequence (Q08722 19-323): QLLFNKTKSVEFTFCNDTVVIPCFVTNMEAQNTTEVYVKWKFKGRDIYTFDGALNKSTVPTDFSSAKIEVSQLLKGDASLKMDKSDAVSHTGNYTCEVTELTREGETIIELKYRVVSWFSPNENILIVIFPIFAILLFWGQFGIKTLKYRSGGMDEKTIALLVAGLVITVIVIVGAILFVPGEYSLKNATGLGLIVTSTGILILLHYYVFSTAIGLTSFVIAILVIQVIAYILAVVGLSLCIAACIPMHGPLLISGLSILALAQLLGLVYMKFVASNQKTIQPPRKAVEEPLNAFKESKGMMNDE

As for SIRPα (from UniProt P78324), the Kd was 2 µM.
